# Measured values taken from patent publication US20260070987A1.
# Numbering of substitutions follows the chain as printed. In names and notes the source's numbering stands.
# B1: equine IgG1 N434W (antibody, part only; not given: Variable domains, not shown: another chain or arm of the molecule)
# constant: ASTTAPKVFALAPGCGTTSDSTVALGCLVSGYFPEPVKVSWNSGSLTSGVHTFPSVLQSSGFYSLSSMVTVPASTWTSETYICNVVHAASNFKVDKRIEPIPDNHQKVCDMSKCPKCPAPELLGGPSVFIFPPNPKDTLMITRTPEVTCVVVDVSQENPDVKFNWYMDGVEVRTATTRPKEEQFNSTYRVVSVLRIQHQDWLSGKEFKCKVNNQALPQPIERTITKTKGRSQEPQVYVLAPHPDELSKSKVSVTCLVKDFYPPEINIEWQSNGQPELETKYSTTQAQQDSDGSYFLYSKLSVDRNRWQQGTTFTCGVMHEALHWHYTQKNVSKNPGK
# B2: equine IgG1 N434F (antibody, part only; not given: variable domains, not shown: another chain or arm of the molecule)
# constant: B1 constant with W324F
# B3: equine IgG7 D312K mutant (antibody, part only; not given: variable domains, not shown: another chain or arm of the molecule)
# constant: ASTTAPKVFPLASHSAATSGSTVALGCLVSSYFPEPVTVSWNSGALTSGVHTFPSVLQSSGLYSLSSMVTVPASSLKSQTYICNVAHPASSTKVDKKIVIKECGGCPTCPECLSVGPSVFIFPPKPKDVLMISRTPTVTCVVVDVGHDFPDVQFNWYVDGVETHTATTEPKQEQNNSTYRVVSILAIQHKKWLSGKEFKCKVNNQALPAPVQKTISKPTGQPREPQVYVLAPHRDELSKNKVSVTCLVKDFYPTDIDIEWKSNGQPEPETKYSTTPAQLDSDGSYFLYSKLTVETNRWQQGTTFTCAVMHEALHNHYTEKSVSKSPGK
# B4: equine IgG7 T286Y mutant (antibody, part only; not given: Variable domains, not shown: another chain or arm of the molecule)
# constant: B3 constant with T165Y, K191D
# B5: equine IgG7 D312N mutant (antibody, part only; not given: Variable domains, not shown: another chain or arm of the molecule)
# constant: B3 constant with K191N
# B6: equine IgG7 T286E mutant (antibody, part only; not given: variable domains, not shown: another chain or arm of the molecule)
# constant: B3 constant with T165E, K191D
# B7: equine IgG7 Y436Q mutant (antibody, part only; not given: Variable domains, not shown: another chain or arm of the molecule)
# constant: B3 constant with K191D, Y317Q
# B8: equine IgG7 Y436M mutant (antibody, part only; not given: variable domains, not shown: another chain or arm of the molecule)
# constant: B3 constant with K191D, Y317M
# B9: equine IgG7 D312S mutant (antibody, part only; not given: variable domains, not shown: another chain or arm of the molecule)
# constant: B3 constant with K191S
# B10: equine IgG7 D312R mutant (antibody, part only; not given: Variable domains, not shown: another chain or arm of the molecule)
# constant: B3 constant with K191R
# B11: equine IgG7 Y436S mutant (antibody, part only; not given: variable domains, not shown: another chain or arm of the molecule)
# constant: B3 constant with K191D, Y317S
# B12: equine IgG7 Y436C mutant (antibody, part only; not given: variable domains, not shown: another chain or arm of the molecule)
# constant: B3 constant with K191D, Y317C
# B13: equine IgG7 Y436R mutant (antibody, part only; not given: variable domains, not shown: another chain or arm of the molecule)
# constant: B3 constant with K191D, Y317R
# B14: equine IgG7 T286P mutant (antibody, part only; not given: variable domains, not shown: another chain or arm of the molecule)
# constant: B3 constant with T165P, K191D
# B15: equine IgG7 T286C mutant (antibody, part only; not given: variable domains, not shown: another chain or arm of the molecule)
# constant: B3 constant with T165C, K191D
# B16: equine IgG7 Y436A mutant (antibody, part only; not given: Variable domains, not shown: another chain or arm of the molecule)
# constant: B3 constant with K191D, Y317A
# B17: equine IgG7 T286F mutant (antibody, part only; not given: variable domains, not shown: another chain or arm of the molecule)
# constant: B3 constant with T165F, K191D
# B18: equine IgG7 T286S mutant (antibody, part only; not given: variable domains, not shown: another chain or arm of the molecule)
# constant: B3 constant with T165S, K191D
# B19: equine IgG7 T286K mutant (antibody, part only; not given: variable domains, not shown: another chain or arm of the molecule)
# constant: B3 constant with T165K, K191D
# B20: equine IgG7 D312W mutant (antibody, part only; not given: variable domains, not shown: another chain or arm of the molecule)
# constant: B3 constant with K191W
# B21: equine IgG7 D312P mutant (antibody, part only; not given: variable domains, not shown: another chain or arm of the molecule)
# constant: B3 constant with K191P
# B22: equine IgG7 Y436F mutant (antibody, part only; not given: variable domains, not shown: another chain or arm of the molecule)
# constant: B3 constant with K191D, Y317F
# B23: equine IgG7 Y436V mutant (antibody, part only; not given: Variable domains, not shown: another chain or arm of the molecule)
# constant: B3 constant with K191D, Y317V
# B24: equine IgG7 Y436G mutant (antibody, part only; not given: variable domains, not shown: another chain or arm of the molecule)
# constant: B3 constant with K191D, Y317G
# B25: equine IgG7 Y436K mutant (antibody, part only; not given: variable domains, not shown: another chain or arm of the molecule)
# constant: B3 constant with K191D, Y317K
# B26: equine IgG7 T286V mutant (antibody, part only; not given: Variable domains, not shown: another chain or arm of the molecule)
# constant: B3 constant with T165V, K191D
# B27: equine IgG7 Y436N mutant (antibody, part only; not given: Variable domains, not shown: another chain or arm of the molecule)
# constant: B3 constant with K191D, Y317N
# B28: equine IgG7 Y436D mutant (antibody, part only; not given: Variable domains, not shown: another chain or arm of the molecule)
# constant: B3 constant with K191D, Y317D
# B29: equine IgG7 Y436E mutant (antibody, part only; not given: variable domains, not shown: another chain or arm of the molecule)
# constant: B3 constant with K191D, Y317E
# B30: equine IgG7 T286I mutant (antibody, part only; not given: variable domains, not shown: another chain or arm of the molecule)
# constant: B3 constant with T165I, K191D
# B31: equine IgG7 T286H mutant (antibody, part only; not given: variable domains, not shown: another chain or arm of the molecule)
# constant: B3 constant with T165H, K191D
# B32: equine IgG7 D312L mutant (antibody, part only; not given: variable domains, not shown: another chain or arm of the molecule)
# constant: B3 constant with K191L
# B33: equine IgG7 T286W mutant (antibody, part only; not given: variable domains, not shown: another chain or arm of the molecule)
# constant: B3 constant with T165W, K191D
# B34: equine IgG7 D312Q mutant (antibody, part only; not given: variable domains, not shown: another chain or arm of the molecule)
# constant: B3 constant with K191Q
# B35: equine IgG7 T286R mutant (antibody, part only; not given: variable domains, not shown: another chain or arm of the molecule)
# constant: B3 constant with T165R, K191D
# B36: equine IgG7 Y436T mutant (antibody, part only; not given: variable domains, not shown: another chain or arm of the molecule)
# constant: B3 constant with K191D, Y317T
# B37: equine IgG7 T286G mutant (antibody, part only; not given: variable domains, not shown: another chain or arm of the molecule)
# constant: B3 constant with T165G, K191D
# B38: equine IgG7 Y436I mutant (antibody, part only; not given: Variable domains, not shown: another chain or arm of the molecule)
# constant: B3 constant with K191D, Y317I
# B39: equine IgG7 T286L mutant (antibody, part only; not given: Variable domains, not shown: another chain or arm of the molecule)
# constant: B3 constant with T165L, K191D
# B40: equine IgG7 D312V mutant (antibody, part only; not given: variable domains, not shown: another chain or arm of the molecule)
# constant: B3 constant with K191V
# B41: equine IgG7 T286M mutant (antibody, part only; not given: variable domains, not shown: another chain or arm of the molecule)
# constant: B3 constant with T165M, K191D
# B42: equine IgG7 Y436W mutant (antibody, part only; not given: Variable domains, not shown: another chain or arm of the molecule)
# constant: B3 constant with K191D, Y317W
# B43: equine IgG7 D312M mutant (antibody, part only; not given: variable domains, not shown: another chain or arm of the molecule)
# constant: B3 constant with K191M
# B44: equine IgG7 D312Y mutant (antibody, part only; not given: variable domains, not shown: another chain or arm of the molecule)
# constant: B3 constant with K191Y
# B45: equine IgG7 T286D mutant (antibody, part only; not given: Variable domains, not shown: another chain or arm of the molecule)
# constant: B3 constant with T165D, K191D
# B46: equine IgG7 T286A mutant (antibody, part only; not given: variable domains, not shown: another chain or arm of the molecule)
# constant: B3 constant with T165A, K191D
# B47: equine IgG7 D312T mutant (antibody, part only; not given: variable domains, not shown: another chain or arm of the molecule)
# constant: B3 constant with K191T
# B48: equine IgG7 T286Q mutant (antibody, part only; not given: variable domains, not shown: another chain or arm of the molecule)
# constant: B3 constant with T165Q, K191D
# Biological target: equine FcRn (large alpha subunit p51) / equine beta-2-microglobulin complex, biotinylated (equine) (UniProt P30441)
# Sequence of UniProt P30441 (P30441 21-118, one chain of several): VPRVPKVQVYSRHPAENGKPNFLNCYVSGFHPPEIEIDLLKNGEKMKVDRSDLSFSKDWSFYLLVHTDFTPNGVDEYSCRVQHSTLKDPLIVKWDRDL
# Assay: SPR (Biacore), pH 7.4
row,Binder,Kd [nM]
1,B1,7310
2,B2,14600

# Biological target: equine FcRn (large alpha subunit p51) / equine beta-2-microglobulin complex, biotinylated (equine) (UniProt P30441)
# Assay: SPR (Biacore), pH 6
row,Binder,Kd [nM]
1,B1,1.86
2,B2,2.83

# Biological target: equine FcRn (large alpha subunit p51) in complex with equine beta-2-microglobulin (equine) (UniProt F6XZ61)
# Sequence of UniProt F6XZ61 (F6XZ61 entry or part of it, one chain of several): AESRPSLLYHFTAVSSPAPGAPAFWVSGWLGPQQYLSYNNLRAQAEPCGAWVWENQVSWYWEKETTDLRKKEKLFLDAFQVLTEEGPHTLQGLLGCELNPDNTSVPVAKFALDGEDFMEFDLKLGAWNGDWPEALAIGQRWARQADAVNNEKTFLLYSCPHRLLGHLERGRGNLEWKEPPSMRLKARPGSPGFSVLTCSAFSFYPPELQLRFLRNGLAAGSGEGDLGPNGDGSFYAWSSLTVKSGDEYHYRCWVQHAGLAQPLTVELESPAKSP
# Assay: SPR (Biacore), pH 6
row,Binder,Kd [nM]
1,B3,16.4
2,B4,14.9
3,B5,25.3
4,B6,35.5
5,B7,9.1
6,B8,5.5
7,B9,9.6
8,B10,9
9,B11,169
10,B12,12.5
11,B13,7.7
12,B14,6.9
13,B15,84.4
14,B16,13.3
15,B17,7.8
16,B18,17.1
17,B19,20.6
18,B20,13.2
19,B21,8
20,B22,9.3
21,B23,6.7
22,B24,51.7
23,B25,74

row,Binder,Kd [nM]
1,B26,2.3
2,B27,65.5
3,B28,11.6
4,B29,13.4
5,B30,15.8
6,B31,16
7,B32,5.7
8,B33,15.4
9,B34,13.6
10,B35,7.8
11,B36,36.2
12,B37,18.2
13,B38,25.1
14,B39,14
15,B40,11.3
16,B41,19.3
17,B42,28.2
18,B43,6.1
19,B44,9.4
20,B45,47.5
21,B46,110
22,B47,9.9
23,B48,7.7
